Measurements published in the supplement of paper PMC7125110.
± gives the standard error. For some of these results: This sample holds only a part of the variants without activity.

B1: glmS ribozyme (parent)
chain: AUAAAAGCGCCAGAACUACAGAAAUGUAGUUGACGAGGAGGAGGUUUAUCGAAUUUUCGGCGGAUGCCUCCAAA

Key:
Details in all cases: with glucosamine-6-phosphate
glucosamine-6-phosphate [1] = variants of: B1; assay: kcat; higher = faster cleavage; RNA array
Procedure, shortened: (§1)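 Tracking of barcoded ribozyme variants used a hybridised Cy3 probe at 37 °C, after in situ transcription by E. coli RNA polymerase on sequenced MiSeq chips. The flowed solution held 40 μM to 10 mM glucosamine-6-phosphate in HEPES/KCl/Mg(OAc)2 buffer, and imaging ran over ~14 h. kobs was taken from exponential decay fits of normalised per-tile medians, and kcat and KM from weighted Michaelis–Menten fits.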

glucosamine-6-phosphate [2] = variants of: B1; assay: self-cleavage kobs at 2500 uM GlcN6P; higher = faster cleavage; RNA array
Procedure, shortened: as §1

glucosamine-6-phosphate [3] = variants of: B1; assay: self-cleavage kobs at 10000 uM GlcN6P; higher = faster cleavage; RNA array
Procedure, shortened: as §1

glucosamine-6-phosphate [4] = variants of: B1; assay: KM; higher = weaker cofactor use; RNA array
Procedure, shortened: as §1

glucosamine-6-phosphate [5] = variants of: B1; assay: self-cleavage kobs at 640 uM GlcN6P; higher = faster cleavage; RNA array
Procedure, shortened: as §1

glucosamine-6-phosphate [6] = variants of: B1; assay: self-cleavage kobs at 40 uM GlcN6P; higher = faster cleavage; RNA array
Procedure, shortened: as §1

glucosamine-6-phosphate [7] = variants of: B1; assay: self-cleavage kobs at 160 uM GlcN6P; higher = faster cleavage; RNA array
Procedure, shortened: as §1

Variant	kcat (glucosamine-6-phosphate [1])	self-cleavage kobs at 2500 uM GlcN6P (glucosamine-6-phosphate [2])	self-cleavage kobs at 10000 uM GlcN6P (glucosamine-6-phosphate [3])	KM (glucosamine-6-phosphate [4])	self-cleavage kobs at 640 uM GlcN6P (glucosamine-6-phosphate [5])	self-cleavage kobs at 40 uM GlcN6P (glucosamine-6-phosphate [6])	self-cleavage kobs at 160 uM GlcN6P (glucosamine-6-phosphate [7])
G40C A52U	8.17e-05 ± 1.4e-05 s⁻¹	7.08e-05 ± 9.7e-06 s⁻¹	7.15e-05 ± 8.3e-06 s⁻¹	–	–	–	–
G40C A52G	0.00018 ± 3.1e-05 s⁻¹	0.000102 ± 1.5e-05 s⁻¹	0.000133 ± 1.5e-05 s⁻¹	2990 ± 1200 µM	2.38e-05 ± 8.1e-06 s⁻¹	–	–
G37C C50A C58A U69A	5.12e-05 ± 2.4e-05 s⁻¹	–	–	–	8.62e-05 ± 3.4e-05 s⁻¹	–	–
G40C U45A	0.00147 ± 0.00022 s⁻¹	0.00123 ± 0.00018 s⁻¹	0.00131 ± 0.00019 s⁻¹	823 ± 200 µM	0.000631 ± 7.8e-05 s⁻¹	7.94e-05 ± 9.2e-06 s⁻¹	0.000183 ± 3.5e-05 s⁻¹
A39U G66U	0.0039 ± 0.0011 s⁻¹	0.0018 ± 0.00025 s⁻¹	0.00372 ± 0.00032 s⁻¹	2010 ± 860 µM	0.000735 ± 8.7e-05 s⁻¹	0.000107 ± 1e-05 s⁻¹	0.000292 ± 5.6e-05 s⁻¹
G37U G51C	< 1e-05 s⁻¹	–	< 1e-05 s⁻¹	–	–	–	–
A39U U54C	0.0342 ± 0.014 s⁻¹	0.00989 ± 0.0032 s⁻¹	0.0285 ± 0.0042 s⁻¹	–	0.00436 ± 0.00054 s⁻¹	0.000447 ± 5e-05 s⁻¹	–
G38C A52C	< 1e-05 s⁻¹	–	< 1e-05 s⁻¹	–	–	< 1e-05 s⁻¹	< 1e-05 s⁻¹
G40U A42C	1.23e-05 ± 9.1e-08 s⁻¹	–	–	2280 ± 50 µM	–	–	–
A39U C67G	0.00521 ± 0.0013 s⁻¹	0.00196 ± 0.00069 s⁻¹	0.00516 ± 0.00068 s⁻¹	1290 ± 420 µM	0.00221 ± 0.00032 s⁻¹	0.000162 ± 1.8e-05 s⁻¹	0.000514 ± 7.5e-05 s⁻¹
A39U C67U	0.0107 ± 0.0018 s⁻¹	0.00631 ± 0.001 s⁻¹	0.00878 ± 0.00079 s⁻¹	2220 ± 500 µM	0.00228 ± 0.00025 s⁻¹	0.000223 ± 1.9e-05 s⁻¹	0.000573 ± 8.1e-05 s⁻¹
A39U C67A	0.00981 ± 0.0028 s⁻¹	0.00477 ± 0.0011 s⁻¹	0.00878 ± 0.0012 s⁻¹	2330 ± 910 µM	0.0015 ± 0.00027 s⁻¹	0.000197 ± 2.5e-05 s⁻¹	0.000759 ± 0.00012 s⁻¹
G37A U69C	0.0003 ± 5.9e-05 s⁻¹	0.000167 ± 3.3e-05 s⁻¹	0.000325 ± 5.8e-05 s⁻¹	1170 ± 530 µM	0.000116 ± 2.2e-05 s⁻¹	–	–
G40U U45G	0.0012 ± 0.00018 s⁻¹	0.000779 ± 0.00017 s⁻¹	0.00134 ± 0.00027 s⁻¹	724 ± 190 µM	0.000582 ± 8.9e-05 s⁻¹	7.67e-05 ± 2e-05 s⁻¹	0.000202 ± 3.6e-05 s⁻¹
A39G U47A	0.0304 ± 0.014 s⁻¹	0.0164 ± 0.005 s⁻¹	0.0441 ± 0.011 s⁻¹	–	0.00788 ± 0.0025 s⁻¹	0.00119 ± 0.00019 s⁻¹	0.00231 ± 0.00088 s⁻¹
A39C A48U	0.000107 ± 1.8e-05 s⁻¹	5.68e-05 ± 1.3e-05 s⁻¹	8.1e-05 ± 1.2e-05 s⁻¹	2930 ± 1400 µM	–	< 1e-05 s⁻¹	< 1e-05 s⁻¹

Variant	kcat (glucosamine-6-phosphate [1])	self-cleavage kobs at 2500 uM GlcN6P (glucosamine-6-phosphate [2])	self-cleavage kobs at 10000 uM GlcN6P (glucosamine-6-phosphate [3])	KM (glucosamine-6-phosphate [4])	self-cleavage kobs at 640 uM GlcN6P (glucosamine-6-phosphate [5])	self-cleavage kobs at 40 uM GlcN6P (glucosamine-6-phosphate [6])	self-cleavage kobs at 160 uM GlcN6P (glucosamine-6-phosphate [7])
G40A G59U	1.46e-05 ± 2.7e-06 s⁻¹	–	–	–	–	< 1e-05 s⁻¹	< 1e-05 s⁻¹
A39C G59A	< 1e-05 s⁻¹	–	–	–	< 1e-05 s⁻¹	< 1e-05 s⁻¹	< 1e-05 s⁻¹
G38U G51U	< 1e-05 s⁻¹	–	–	–	–	–	–
G40C U46G	0.000983 ± 6.7e-05 s⁻¹	0.000525 ± 0.00016 s⁻¹	0.000789 ± 0.00015 s⁻¹	2350 ± 280 µM	0.00021 ± 4.6e-05 s⁻¹	–	7.1e-05 ± 3.3e-05 s⁻¹
G38A U49A	< 1e-05 s⁻¹	–	< 1e-05 s⁻¹	–	–	< 1e-05 s⁻¹	–
G37U G38C	< 1e-05 s⁻¹	< 1e-05 s⁻¹	–	–	–	< 1e-05 s⁻¹	< 1e-05 s⁻¹
A39U A52G	0.00113 ± 0.00012 s⁻¹	0.000345 ± 5.5e-05 s⁻¹	0.00078 ± 5.8e-05 s⁻¹	4750 ± 800 µM	0.000134 ± 1.3e-05 s⁻¹	–	5.2e-05 ± 1.4e-05 s⁻¹
G40A U54C	0.00522 ± 0.00053 s⁻¹	0.00449 ± 0.0013 s⁻¹	0.00467 ± 0.0012 s⁻¹	908 ± 140 µM	0.00211 ± 0.0003 s⁻¹	0.000248 ± 5.6e-05 s⁻¹	0.000724 ± 0.00016 s⁻¹
G38A C58G	1.16e-05 ± 3.2e-06 s⁻¹	–	< 1e-05 s⁻¹	–	–	–	< 1e-05 s⁻¹
G40C U47C	0.000914 ± 0.0001 s⁻¹	0.000591 ± 0.00016 s⁻¹	0.000741 ± 0.00015 s⁻¹	2020 ± 360 µM	0.000201 ± 4.4e-05 s⁻¹	–	7.4e-05 ± 2e-05 s⁻¹
G40A A42G	0.00697 ± 0.0023 s⁻¹	0.00363 ± 0.00075 s⁻¹	0.00783 ± 0.0018 s⁻¹	1900 ± 820 µM	0.00157 ± 0.00024 s⁻¹	0.000182 ± 2.4e-05 s⁻¹	0.00046 ± 9.7e-05 s⁻¹
G38U C50G	4.08e-05 ± 1.4e-05 s⁻¹	6.94e-05 ± 1.4e-05 s⁻¹	–	–	–	–	–
G37C C71A	1.96e-05 ± 6.3e-06 s⁻¹	–	–	–	–	–	–
G37C C71U	3.39e-05 ± 1.3e-06 s⁻¹	2.55e-05 ± 9.5e-06 s⁻¹	3.23e-05 ± 8.2e-06 s⁻¹	662 ± 140 µM	–	–	–
G37U C61A	1.07e-05 ± 1.5e-06 s⁻¹	–	< 1e-05 s⁻¹	–	–	–	–
G40U C58A	0.000609 ± 4.4e-05 s⁻¹	–	3.81e-05 ± 9.5e-06 s⁻¹	–	–	< 1e-05 s⁻¹	< 1e-05 s⁻¹
